The values that follow come from patent publication US20050192209A1.

“And” between values parts separate entries of the source, which are not always exact repeats. Equal entries are not always repeated.

The target of this assay is human heparanase, active 50 kDa form (human) (UniProt Q9Y251). In words: cell-based or functional assay.
Chain of UniProt Q9Y251 (Q9Y251 158-543 limits assumed, form in doubt): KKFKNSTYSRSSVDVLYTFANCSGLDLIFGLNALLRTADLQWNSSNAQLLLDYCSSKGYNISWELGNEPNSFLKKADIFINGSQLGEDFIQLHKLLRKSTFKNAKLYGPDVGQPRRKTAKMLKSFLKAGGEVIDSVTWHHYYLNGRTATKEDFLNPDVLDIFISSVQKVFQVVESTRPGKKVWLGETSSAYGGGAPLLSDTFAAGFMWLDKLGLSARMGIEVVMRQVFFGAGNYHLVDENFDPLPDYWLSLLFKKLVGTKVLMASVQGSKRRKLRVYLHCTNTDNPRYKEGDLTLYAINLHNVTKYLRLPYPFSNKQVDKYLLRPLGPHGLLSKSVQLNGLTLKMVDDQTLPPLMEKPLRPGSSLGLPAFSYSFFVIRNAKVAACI

With poly-L-arginine (peptide), the inhibition of heparanase activity (35S-labeled ECM degradation) is 5 ng/mL and 13 ng/mL.

On to myelin basic protein, for which the inhibition of heparanase activity (35S-labeled ECM degradation) came to 20 ng/mL.

B1: Major Basic Protein (MBP) purified from human eosinophils (protein, UniProt P13727 106-222, looked up)
chain: TCRYLLVRSLQTFSQAWFTCRRCYRGNLVSIHNFNINYRIQCSVSALNQGQVWIGGRITGSGRCRRFQWVDGSRWNFAYWAAHQPWSRGGHCVALCTRGGHWRRAHCLRRLPFICSY
As to B1, the inhibition of heparanase activity (release of HS degradation fragments from 35S-labeled ECM, gel filtration) is 80 nM and 200 nM; the inhibition of recombinant heparanase activity by eosinophil lysates (cellular MBP), 35S-labeled ECM degradation (fold excess of MBP over heparanase) stood at 2.5.
